Bridge positions count the residues as written; N and C are the ends. Square brackets hold non-standard residues; d marks the D form. Primed or numbered codes have the meaning given here. Ends that are not written are not given here. PEG13′ = Bifunctional PEG linker with 13 polyethylene glycol units; PEG25′ = Bifunctional PEG linker with 25 polyethylene glycol units; Phe(4-CF3) = N[C@@H](Cc1ccc(C(F)(F)F)cc1)C(=O)O; Bip = N[C@@H](Cc1ccc(-c2ccccc2)cc1)C(=O)O; Phe(4-CN) = N#Cc1ccc(C[C@H](N)C(=O)O)cc1; 1Nal = N[C@@H](Cc1cccc2ccccc12)C(=O)O; 2Nal = N[C@@H](Cc1ccc2ccccc2c1)C(=O)O; NMeR = CN[C@@H](CCCNC(=N)N)C(=O)O; Tic = O=C(O)[C@@H]1Cc2ccccc2CN1; β3hE = N[C@@H](CCC(=O)O)CC(=O)O; NMeK = CN[C@@H](CCCCN)C(=O)O; Pen = CC(C)(S)[C@H](N)C(=O)O; hLeu = CC(C)CC[C@H](N)C(=O)O
B1: SEQ ID NO 158 (peptide)
peptide: Ac-XRSDXLXXE-NH2
modifications: disulfide 1-7 (inferred); not fully specified (residues 1, 2, 5, 7, 8, 9); printed as Ac-Pen-(N-Me-R)-S-D-Cha-L-Pen-(2-Nal)-e-NH2, disulfide

molecular target: α4β7 integrin on human cells (human, UniProt P13612 34-1032; P26010 20-798); assay: cell-based or functional assay

Q: Ac-[Pen][NMeR]SDTL[Pen][2Nal][dL][dK]-NH2 (disulfide 1-7 (inferred); also: homodimer via DIG) [SEQ ID NO 119] was tested. Which “α4β7 cell (Hu) IC50” value did it give?
A: The value was greater than 500 nM.

Q: Ac-[Pen][NMeR]SDTL[Pen][2Nal][dR][dK]-NH2 (disulfide 1-7 (inferred); also: homodimer via DIG) [SEQ ID NO 120] was tested. Which “α4β7 cell (Hu) IC50” value did it give?
A: Its value is greater than 1000 nM.

Q: With Ac-[Pen][NMeR]SDTL[Pen][Bip][β3hE][dK]-NH2 (disulfide 1-7 (inferred); also: homodimer via DIG) [SEQ ID NO 135] as the binder, how does the “α4β7 cell (Hu) IC50” value read?
A: The value was no more than 10 nM.

Q: For Ac-[Pen][NMeR]SDTL[Pen][2Nal][dH][dK]-NH2 (disulfide 1-7 (inferred); also: homodimer via DIG) [SEQ ID NO 118], which “α4β7 cell (Hu) IC50” value is on record?
A: The value was greater than 25 nM.

Q: Ac-[Pen][NMeR]SDTL[Pen][Phe(4-CN)][β3hE][dK]-NH2 (disulfide 1-7 (inferred); also: homodimer via DIG) [SEQ ID NO 139] was tested. Which “α4β7 cell (Hu) IC50” value did it give?
A: Its value is no more than 10 nM.

Q: With Ac-[Pen][NMeR]SDTL[Pen]Y[dE][dK]-NH2 (disulfide 1-7 (inferred); also: homodimer via DIG) [SEQ ID NO 123] as the binder, how does the “α4β7 cell (Hu) IC50” value read?
A: The value was greater than 50 nM.

Q: With Ac-[Pen][NMeR]SDTL[Pen]HY[dK]-NH2 (disulfide 1-7 (inferred); also: homodimer via DIG) [SEQ ID NO 26] as the binder, how does the “α4β7 cell (Hu) IC50” value read?
A: Its value is greater than 100 nM.

Q: For Ac-[Pen][NMeR]SDTL[Pen][2Nal][Tic][dK]-NH2 (disulfide 1-7 (inferred); also: homodimer via DIG) [SEQ ID NO 121], which “α4β7 cell (Hu) IC50” value is on record?
A: Its value is greater than 100 nM.

Q: Which “α4β7 cell (Hu) IC50” value does the source give for Ac-[Pen][NMeR]SD[hLeu]L[Pen][2Nal][dE]-NH2 (disulfide 1-7 (inferred)) [SEQ ID NO 161] here?
A: Its value is greater than 1000 nM.

Q: Ac-[Pen][NMeR]SDTL[Pen][2Nal][dY][dK]-NH2 (disulfide 1-7 (inferred); also: homodimer via DIG) [SEQ ID NO 27] was tested. Which “α4β7 cell (Hu) IC50” value did it give?
A: Its value is greater than 25 nM.

Q: For XRSDTLXW (Ac-Pen-(N-Me-R)-S-D-T-L-Pen-W-OH; disulfide) [SEQ ID NO 127], which “α4β7 cell (Hu) IC50” value is on record?
A: The value was greater than 100 nM.

Q: How did the “α4β7 cell (Hu) IC50” value turn out when Ac-[Pen][NMeR]SDTL[Pen]H[dE][dK]-NH2 (disulfide 1-7 (inferred); also: homodimer via DIG) [SEQ ID NO 124] was run?
A: Its value is greater than 100 nM.

Q: With Ac-[Pen][NMeR]SDLL[Pen][2Nal][dE]-NH2 (disulfide 1-7 (inferred)) [SEQ ID NO 159] as the binder, how does the “α4β7 cell (Hu) IC50” value read?
A: Its value is greater than 1000 nM.

Q: How did the “α4β7 cell (Hu) IC50” value turn out when Ac-[Pen][NMeR]SDTL[Pen][1Nal][Tic][dK]-NH2 (disulfide 1-7 (inferred); also: homodimer via DIG) [SEQ ID NO 115] was run?
A: Its value is greater than 100 nM.

Q: How did the “α4β7 cell (Hu) IC50” value turn out when Ac-[Pen][NMeR]SDTL[Pen]HE[dK]-NH2 (disulfide 1-7 (inferred); also: homodimer via DIG) [SEQ ID NO 25] was run?
A: Its value is greater than 10 nM.

Q: For Ac-[Pen][NMeR]SDTL[Pen][1Nal][dT][dK]-NH2 (disulfide 1-7 (inferred); also: homodimer via DIG) [SEQ ID NO 116], which “α4β7 cell (Hu) IC50” value is on record?
A: Its value is greater than 50 nM.

Q: How did the “α4β7 cell (Hu) IC50” value turn out when Ac-[Pen][NMeR]SDIL[Pen][2Nal][dE]-NH2 (disulfide 1-7 (inferred)) [SEQ ID NO 160] was run?
A: The value was greater than 1000 nM.

Q: For B1, which “α4β7 cell (Hu) IC50” value is on record?
A: Its value is greater than 1000 nM.

Q: Which “α4β7 cell (Hu) IC50” value does the source give for Ac-[Pen][NMeR]SDTL[Pen][2Nal][dF][dK]-NH2 (disulfide 1-7 (inferred); also: homodimer via DIG) [SEQ ID NO 117] here?
A: The value was greater than 100 nM.

Q: Which “α4β7 cell (Hu) IC50” value does the source give for Ac-[Pen][NMeR]SDVL[Pen][2Nal][dE]-NH2 (disulfide 1-7 (inferred)) [SEQ ID NO 156] here?
A: Its value is greater than 100 nM.

Q: How did the “α4β7 cell (Hu) IC50” value turn out when Ac-[Pen][NMeR]SDTL[Pen][Phe(4-CF3)][dE][dK]-NH2 (disulfide 1-7 (inferred); also: homodimer via DIG) [SEQ ID NO 122] was run?
A: Its value is greater than 50 nM.

Q: For Ac-[Pen][NMeR]SDTQ[Pen][2Nal][dE]-NH2 (disulfide 1-7 (inferred)) [SEQ ID NO 163], which “α4β7 cell (Hu) IC50” value is on record?
A: Its value is greater than 1000 nM.

Q: How did the “α4β7 cell (Hu) IC50” value turn out when [PEG13′]C[NMeR]SDTL[Pen]W-NH2 (disulfide 2-8 (inferred)) [SEQ ID NO 20] was run?
A: The value was greater than 50 nM.

Q: Which “α4β7 cell (Hu) IC50” value does the source give for Ac-[Pen][NMeR]SDTL[Pen]W[BetaE][dK]-NH2 (disulfide 1-7 (inferred); also: dimer via DIG) [SEQ ID NO 1] here?
A: The value was greater than 50 nM.

Q: For Ac-[Pen][NMeR]SDTY[Pen][2Nal][dE]-NH2 (disulfide 1-7 (inferred)) [SEQ ID NO 164], which “α4β7 cell (Hu) IC50” value is on record?
A: Its value is greater than 1000 nM.

Q: How did the “α4β7 cell (Hu) IC50” value turn out when Ac-[Pen][NMeR]SDFL[Pen][2Nal][dE]-NH2 (disulfide 1-7 (inferred)) [SEQ ID NO 157] was run?
A: Its value is greater than 1000 nM.

Q: Which “α4β7 cell (Hu) IC50” value does the source give for Ac-[Pen][NMeR]SDTL[Pen][Bip]E[NMeK]-NH2 (disulfide 1-7 (inferred); also: homodimer via DIG) [SEQ ID NO 136] here?
A: The value was no more than 10 nM.

Q: Which “α4β7 cell (Hu) IC50” value does the source give for [PEG25′]C[NMeR]SDTL[Pen]W-NH2 (disulfide 2-8 (inferred)) [SEQ ID NO 21] here?
A: The value was greater than 50 nM.

Q: With Ac-[Pen][NMeR]SDTL[Pen][2Nal][dT][dK]-NH2 (disulfide 1-7 (inferred); also: homodimer via DIG) [SEQ ID NO 140] as the binder, how does the “α4β7 cell (Hu) IC50” value read?
A: Its value is greater than 10 nM.

Q: With Ac-[Pen][NMeR]SDTF[Pen][2Nal][dE]-NH2 (disulfide 1-7 (inferred)) [SEQ ID NO 162] as the binder, how does the “α4β7 cell (Hu) IC50” value read?
A: The value was greater than 1000 nM.

Q: Which “α4β7 cell (Hu) IC50” value does the source give for Ac-[Pen][NMeR]SDTL[Pen]WE-OH (disulfide 1-7 (inferred)) [SEQ ID NO 128] here?
A: The value was greater than 50 nM.

Reference: US20160159862A1 (PROTAGONIST THERAPEUTICS, published 2016)
